# Test results published in the MegaScale stability set (Tsuboyama et al. 2023).
# B1: EEHEE_rd4_0647 (parent)
# chain: MQVTWGNVTVTFSNPEEAKKYAEKVARKLGGQVELHNGQFRIK
# Variants of: B1
# Assay: folding stability dG (cDNA display proteolysis); higher = more stable
# Conditions: PBS, room temperature
row,Variant,folding stability dG
1,MQVTWYNVTVTFSNPEEAKKYAEKVARKLGGQVELHNGQFRIK,2.51 kcal/mol
2,MQVTWGAVTVTFSNPEEAKKYAEKVARKLGGQVELHNGQFRIK,2.39 kcal/mol
3,MQVTWGCVTVTFSNPEEAKKYAEKVARKLGGQVELHNGQFRIK,3.66 kcal/mol
4,MQVTWGDVTVTFSNPEEAKKYAEKVARKLGGQVELHNGQFRIK,2.58 kcal/mol
5,MQVTWGEVTVTFSNPEEAKKYAEKVARKLGGQVELHNGQFRIK,2.39 kcal/mol
6,MQVTWGFVTVTFSNPEEAKKYAEKVARKLGGQVELHNGQFRIK,2.43 kcal/mol
7,MQVTWGGVTVTFSNPEEAKKYAEKVARKLGGQVELHNGQFRIK,2.58 kcal/mol
8,MQVTWGHVTVTFSNPEEAKKYAEKVARKLGGQVELHNGQFRIK,2.64 kcal/mol
9,MQVTWGIVTVTFSNPEEAKKYAEKVARKLGGQVELHNGQFRIK,2.31 kcal/mol
10,MQVTWGKVTVTFSNPEEAKKYAEKVARKLGGQVELHNGQFRIK,2.72 kcal/mol
11,MQVTWGLVTVTFSNPEEAKKYAEKVARKLGGQVELHNGQFRIK,2.27 kcal/mol
12,MQVTWGMVTVTFSNPEEAKKYAEKVARKLGGQVELHNGQFRIK,2.37 kcal/mol
13,MQVTWGPVTVTFSNPEEAKKYAEKVARKLGGQVELHNGQFRIK,2.29 kcal/mol
14,MQVTWGQVTVTFSNPEEAKKYAEKVARKLGGQVELHNGQFRIK,2.49 kcal/mol
15,MQVTWGRVTVTFSNPEEAKKYAEKVARKLGGQVELHNGQFRIK,2.64 kcal/mol
16,MQVTWGSVTVTFSNPEEAKKYAEKVARKLGGQVELHNGQFRIK,2.68 kcal/mol
17,MQVTWGTVTVTFSNPEEAKKYAEKVARKLGGQVELHNGQFRIK,2.67 kcal/mol
18,MQVTWGVVTVTFSNPEEAKKYAEKVARKLGGQVELHNGQFRIK,2.33 kcal/mol
19,MQVTWGWVTVTFSNPEEAKKYAEKVARKLGGQVELHNGQFRIK,2.43 kcal/mol
20,MQVTWGYVTVTFSNPEEAKKYAEKVARKLGGQVELHNGQFRIK,2.54 kcal/mol

row,Variant,folding stability dG
1,MQVTWGNATVTFSNPEEAKKYAEKVARKLGGQVELHNGQFRIK,1.89 kcal/mol
2,MQVTWGNDTVTFSNPEEAKKYAEKVARKLGGQVELHNGQFRIK,1.33 kcal/mol
3,MQVTWGNETVTFSNPEEAKKYAEKVARKLGGQVELHNGQFRIK,1.92 kcal/mol
4,MQVTWGNFTVTFSNPEEAKKYAEKVARKLGGQVELHNGQFRIK,2.81 kcal/mol
5,MQVTWGNGTVTFSNPEEAKKYAEKVARKLGGQVELHNGQFRIK,1.49 kcal/mol
6,MQVTWGNHTVTFSNPEEAKKYAEKVARKLGGQVELHNGQFRIK,2.8 kcal/mol
7,MQVTWGNITVTFSNPEEAKKYAEKVARKLGGQVELHNGQFRIK,2.96 kcal/mol
8,MQVTWGNKTVTFSNPEEAKKYAEKVARKLGGQVELHNGQFRIK,2.57 kcal/mol
9,MQVTWGNLTVTFSNPEEAKKYAEKVARKLGGQVELHNGQFRIK,2.45 kcal/mol
10,MQVTWGNMTVTFSNPEEAKKYAEKVARKLGGQVELHNGQFRIK,2.68 kcal/mol
11,MQVTWGNNTVTFSNPEEAKKYAEKVARKLGGQVELHNGQFRIK,2.51 kcal/mol
12,MQVTWGNPTVTFSNPEEAKKYAEKVARKLGGQVELHNGQFRIK,0.417 kcal/mol
13,MQVTWGNQTVTFSNPEEAKKYAEKVARKLGGQVELHNGQFRIK,2.35 kcal/mol
14,MQVTWGNRTVTFSNPEEAKKYAEKVARKLGGQVELHNGQFRIK,2.5 kcal/mol
15,MQVTWGNSTVTFSNPEEAKKYAEKVARKLGGQVELHNGQFRIK,2.01 kcal/mol
16,MQVTWGNTTVTFSNPEEAKKYAEKVARKLGGQVELHNGQFRIK,2.64 kcal/mol
17,MQVTWGNWTVTFSNPEEAKKYAEKVARKLGGQVELHNGQFRIK,2.79 kcal/mol
18,MQVTWGNYTVTFSNPEEAKKYAEKVARKLGGQVELHNGQFRIK,2.84 kcal/mol
19,MQVTWGNVAVTFSNPEEAKKYAEKVARKLGGQVELHNGQFRIK,1.85 kcal/mol
20,MQVTWGNVCVTFSNPEEAKKYAEKVARKLGGQVELHNGQFRIK,3.2 kcal/mol

row,Variant,folding stability dG
1,MQVTWGNVDVTFSNPEEAKKYAEKVARKLGGQVELHNGQFRIK,0.892 kcal/mol
2,MQVTWGNVEVTFSNPEEAKKYAEKVARKLGGQVELHNGQFRIK,1.46 kcal/mol
3,MQVTWGNVFVTFSNPEEAKKYAEKVARKLGGQVELHNGQFRIK,1.95 kcal/mol
4,MQVTWGNVGVTFSNPEEAKKYAEKVARKLGGQVELHNGQFRIK,0.945 kcal/mol
5,MQVTWGNVHVTFSNPEEAKKYAEKVARKLGGQVELHNGQFRIK,1.77 kcal/mol
6,MQVTWGNVIVTFSNPEEAKKYAEKVARKLGGQVELHNGQFRIK,2.71 kcal/mol
7,MQVTWGNVKVTFSNPEEAKKYAEKVARKLGGQVELHNGQFRIK,2.02 kcal/mol
8,MQVTWGNVLVTFSNPEEAKKYAEKVARKLGGQVELHNGQFRIK,2.22 kcal/mol
9,MQVTWGNVMVTFSNPEEAKKYAEKVARKLGGQVELHNGQFRIK,2.15 kcal/mol
10,MQVTWGNVNVTFSNPEEAKKYAEKVARKLGGQVELHNGQFRIK,1.62 kcal/mol
11,MQVTWGNVPVTFSNPEEAKKYAEKVARKLGGQVELHNGQFRIK,0.422 kcal/mol
12,MQVTWGNVQVTFSNPEEAKKYAEKVARKLGGQVELHNGQFRIK,1.84 kcal/mol
13,MQVTWGNVRVTFSNPEEAKKYAEKVARKLGGQVELHNGQFRIK,2.06 kcal/mol
14,MQVTWGNVSVTFSNPEEAKKYAEKVARKLGGQVELHNGQFRIK,2.26 kcal/mol
15,MQVTWGNVVVTFSNPEEAKKYAEKVARKLGGQVELHNGQFRIK,2.84 kcal/mol
16,MQVTWGNVWVTFSNPEEAKKYAEKVARKLGGQVELHNGQFRIK,1.78 kcal/mol
17,MQVTWGNVYVTFSNPEEAKKYAEKVARKLGGQVELHNGQFRIK,1.85 kcal/mol
18,MQVTWGNVTATFSNPEEAKKYAEKVARKLGGQVELHNGQFRIK,1.97 kcal/mol
19,MQVTWGNVTCTFSNPEEAKKYAEKVARKLGGQVELHNGQFRIK,3.62 kcal/mol
